Some targets named below: HLA-A*01:01; HLA-A*26:01; HLA-A*29:02; HLA-A*30:01; HLA-A*30:02; HLA-A*32:01; HLA-B*08:01; HLA-B*07:02; HLA-B*40:01; HLA-B*44:03; HLA-A*02:01; HLA-B*44:02.
What all share (experiment): IEDB peptide-MHC binding, purified MHC/competitive/radioactivity; filed as Kd, often an IC50 or EC50 that approximates it; ≥ and ≤ were set here for values at or beyond the usual limits of such assays
The next assay deals with HLA-B*15:01. The conditions noted are these: source organism: Vaccinia virus WR.
A further assay has as its target HLA-B*51:01. The conditions noted are these: source organism: Dengue virus 1 Brazil/97-11/1997.
In another assay the target is HLA-A*23:01. The conditions noted are these: source organism: Lymphocytic choriomeningitis virus (strain Armstrong).
A further assay has as its target HLA-A*24:02. The conditions noted are these: source organism: Lymphocytic choriomeningitis virus (strain Armstrong).
Setting [1] is: source organism: Mammarenavirus brazilense.
[2] abbreviates: source organism: Vaccinia virus WR.
[3] abbreviates: source organism: Dengue virus 1 Brazil/97-11/1997.
Setting [4] is: source organism: Dengue virus 2 Jamaica/1409/1983.
Setting [5] is: source organism: Dengue virus 4 Philippines/H241/1956.
[6] abbreviates: source organism: Dengue virus 1 Singapore/S275/1990.
Setting [7] is: source organism: Mammarenavirus choriomeningitidis.
The mark [8] stands for this setting: source organism: Lymphocytic choriomeningitis virus (strain Armstrong).

Experimental findings from the Immune Epitope Database (IEDB) are described below.

With LLSEMLNKEY, the dissociation constant (Kd) is 446 nM in the assay with HLA-A*01:01 (setting [1]); 15.8 µM with HLA-A*26:01 (setting [1]); 0.511 µM with HLA-A*29:02 (setting [1]); 10.9 µM with HLA-A*30:01 (setting [1]); 701 nM with HLA-A*30:02 (setting [1]); not below 38.6 µM with HLA-A*32:01 (setting [1]).
Turning to LMGFRNSAL, the Kd with HLA-B*08:01 (setting [2]) is 1100 nM.
Turning to LMTGTLAVFL, the Kd with HLA-B*08:01 (setting [3]) worked out at 1700 nM.
LNRRRRTAG: the Kd with HLA-B*08:01 (setting [4]) was found to be 739 nM.
On to LPVCAPSSA, for which the Kd with HLA-B*07:02 (source organism: Hepatitis B virus) was 115 nM.
Regarding LSASVFYRG, in the assay with HLA-B*15:01, the Kd was 295 nM.
As for LVRHYFRYI, the Kd with HLA-B*15:01 came out at 158 nM.
NEGIMAVGL: the values for the Kd with HLA-B*40:01 (setting [5]) and with HLA-B*44:03 (setting [5]) were 2260 nM and 1540 nM, respectively.
Regarding NPTTLTASL, the Kd with HLA-B*07:02 (source organism: Dengue virus 4 Dominica/814669/1981) turned out to be 57.3 nM.
Consider NRRKRSVTM, for which the Kd with HLA-B*08:01 (setting [3]) turned out to be 6.72 nM.
NVFKAMETF: in the assay with HLA-B*15:01, the Kd stood at 22.8 nM.
Take PNERRAWNFL: in the assay with HLA-A*32:01 (setting [5]), the Kd was not below 25.3 µM.
Consider RVIEVLQRA, for which, in the assay with HLA-A*02:01 (source organism: HIV-1 M:B_MN), the Kd was determined as 25 nM.
For SAVPVDWVPT, the dissociation constant (Kd) in the assay with HLA-A*32:01 (setting [3]) turned out to be 18.6 µM.
Take SEGIFSPSEL: the Kd amounted to 5.6 nM in the assay with HLA-B*40:01 (setting [6]), 66.3 nM with HLA-B*44:02 (setting [6]) and 77.5 nM with HLA-B*44:03 (setting [6]).
On to SKKTRISDL, for which the Kd with HLA-B*08:01 (source organism: Cowpox virus) is 2.76 nM.
For SLGCKPLTM, in the assay with HLA-B*08:01 (setting [6]), the dissociation constant Kd is 169 nM.
Regarding SLLRKFLYC, in the assay with HLA-B*08:01 (setting [2]), the dissociation constant Kd was found to be 701 nM.
The same measure, in the same setting: next, SLQQRLEDL: 158 nM.
For the sequence SLSAVSVHI, the equilibrium dissociation constant (Kd) with HLA-A*32:01 (setting [2]) stood at 0.0339 µM.
SMFTLRHII: the Kd turned out to be 0.0828 µM with HLA-A*32:01 (setting [2]) and 1.81 nM with HLA-B*08:01 (setting [2]).
Consider SPMGKLTFF, for which the Kd with HLA-B*08:01 (setting [2]) stood at 262 nM.
On to TPMLRHSIEN, for which the dissociation constant (Kd) with HLA-B*07:02 (setting [4]) was 507 nM.
For TPQDNQLAYV, the Kd with HLA-B*07:02 (setting [3]) was found to be 330 nM; in the assay with HLA-B*51:01, 14.6 µM.
Take TTDVKAAVI: the Kd with HLA-A*01:01 (setting [7]) was 955 nM; with HLA-A*26:01 (setting [7]), not below 77.9 µM; with HLA-A*29:02 (setting [7]), 10.4 µM; in the assay with HLA-A*30:01 (setting [7]), not below 72.2 µM; with HLA-A*30:02 (setting [7]) it was not below 23700 nM; in the assay with HLA-A*32:01 (setting [7]), not below 77.8 µM.
Take TTWALCESI: the Kd with HLA-A*32:01 (setting [3]) worked out at 0.293 µM.
Regarding VCLSGEGWPY, the equilibrium dissociation constant (Kd) with HLA-A*23:01 is not below 70 µM; with HLA-A*24:02 it was not below 70.3 µM; with HLA-A*26:01 (setting [8]), not below 69.7 µM; with HLA-A*30:01 (setting [8]), not below 33.2 µM; in the assay with HLA-A*32:01 (setting [8]) it was not below 26.1 µM.
Consider VEMGEAAGIF, for which the Kd is 1150 nM with HLA-B*40:01 (setting [4]), 39.2 nM with HLA-B*44:02 (setting [4]) and 592 nM with HLA-B*44:03 (setting [4]).
As for VLQQSTYQL, in the assay with HLA-A*02:01 (source organism: Triticum aestivum), the equilibrium dissociation constant (Kd) was 58 nM.
On to WELVDKERNL, for which, in the assay with HLA-B*40:01 (source organism: Dengue virus 2 Peru/IQT2913/1996), the Kd is 222 nM.
As for WELVDRERNL, the Kd in the assay with HLA-B*40:01 (setting [4]) came out at 116 nM.
Take YLLSLFSTL: the Kd in the assay with HLA-B*08:01 (setting [2]) came to 4.02 nM.
With YLMLLFAAM, the Kd with HLA-B*08:01 (setting [2]) came out at 138 nM.
Still for that read-out and setting: the result for YLRTKPASA reads 1.48 nM.

A word on the Kd: it is the free concentration of one partner at which half of the binding sites on the other are occupied at equilibrium, for simple one-to-one binding.
